According to patent publication US20220251204A1 (AstraZeneca / MedImmune, published 2022):
Positions count from the first letter of the chain named.

Experiments:
[1] = biological target: T1, human PD-1 expressed on cells (human, UniProt Q15116 25-288); assay: cell-based or functional assay
[2] = biological target: T2, human CTLA-4 expressed on cells (human, UniProt P16410 36-223); assay: cell-based or functional assay
T2 sequence: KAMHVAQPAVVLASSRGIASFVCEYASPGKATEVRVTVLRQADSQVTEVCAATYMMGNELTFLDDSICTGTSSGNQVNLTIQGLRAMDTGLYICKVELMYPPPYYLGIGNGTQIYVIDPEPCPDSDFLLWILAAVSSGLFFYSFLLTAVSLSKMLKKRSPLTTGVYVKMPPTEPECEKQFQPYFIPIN

[3] = biological target: T2, human CTLA-4 expressed on cells; assay: receptor occupancy on CHO cells, flow cytometry
[4] = biological target: T1, human PD-1 expressed on cells; assay: flow cytometry, CHO cells expressing PD-1 only
[5] = biological target: T2, human CTLA-4 expressed on cells; assay: flow cytometry, CHO cells expressing CTLA-4 only
[6] = biological target: T2, human CTLA-4 expressed on cells; assay: receptor occupancy on CHO cells expressing excess PD-1, flow cytometry
cynomolgus PD-1 = biological target: T3, cynomolgus PD-1 (cynomolgus, UniProt B0LAJ3 25-170); assay: SPR, BIAcore T200; antibody captured on mouse anti-huIgG-Fab, antigen injected
T3 construct: also called cyno PD1
T3 sequence (B0LAJ3 entry or part of it limits assumed): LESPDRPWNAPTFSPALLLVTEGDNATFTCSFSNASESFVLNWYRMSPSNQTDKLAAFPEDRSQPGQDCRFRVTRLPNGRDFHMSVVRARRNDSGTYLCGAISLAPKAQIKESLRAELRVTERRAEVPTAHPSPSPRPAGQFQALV
Experimental: (§1) Binding experiments were carried out using a BIAcore T200 instrument (BIAcore). To capture the antibody, mouse anti-huIgG-Fab was immobilized on a CM5 chip to a target response of 2000 RU. 100 nM of the DuetMab or mAbs were flowed at 20 μL/min for 5 min to achieve approximately 100 response units of captured antibody. Antigen were then injected serially at a flow rate of 50 μl/min for 5 min. Kinetic parameters (kₒₙ and koff) and dissociation constant (KD) were calculated from a non-linear fit using BIAevaluation 4.1 software.

mouse PD-1 = biological target: T4, mouse PD-1 (mouse, UniProt Q02242 25-167); assay: as above
T4 construct: also called mu PD1
T4 sequence (looked up): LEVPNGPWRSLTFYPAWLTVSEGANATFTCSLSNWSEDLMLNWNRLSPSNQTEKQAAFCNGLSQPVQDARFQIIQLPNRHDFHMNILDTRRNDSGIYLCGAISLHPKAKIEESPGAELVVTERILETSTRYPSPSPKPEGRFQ
Experimental: as §1

[7] = biological target: T5, human CTLA-4 antigen (soluble) (human, UniProt P16410 36-161); assay: as above
T5 construct: also called hu CTLA4; soluble CTLA-4 antigen
T5 sequence: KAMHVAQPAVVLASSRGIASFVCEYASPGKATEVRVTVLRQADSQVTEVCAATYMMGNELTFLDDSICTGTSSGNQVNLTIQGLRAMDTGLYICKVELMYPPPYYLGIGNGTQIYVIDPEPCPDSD
Experimental: as §1

cynomolgus CTLA-4 = biological target: T6, cynomolgus CTLA-4 (cynomolgus, UniProt G7PL88 36-161); assay: as above
T6 construct: also called cyno CTLA4
T6 sequence: T5 sequence with S14N, I18T, L106M
Experimental: as §1

[8] = biological target: T7, human PD-1 antigen (soluble) (human, UniProt Q15116 25-170); assay: as above
T7 construct: also called hu PD1; Biotinylated human PD-1
T7 sequence (Q15116 25-170 limits assumed): as the sequence (B0LAJ3 entry or part of it limits assumed) above, with E2D, A10P, L19V, A35T, R75Q, A144T counted along it
Experimental: as §1

[9] = biological target: T2, human CTLA-4 expressed on cells; assay: flow cytometry receptor occupancy, CHO cells expressing CTLA-4 only; free CTLA-4 detected with labeled anti-CTLA-4 mAb
[10] = biological target: T1, human PD-1 expressed on cells; assay: flow cytometry receptor occupancy, CHO cells expressing PD-1:CTLA-4 (10:1); free PD-1 detected with labeled anti-PD-1 mAb
[11] = biological target: T1, human PD-1 expressed on cells; assay: flow cytometry receptor occupancy, CHO cells expressing PD-1:CTLA-4 (40:1); free PD-1 detected with labeled anti-PD-1 mAb
[12] = biological target: T2, human CTLA-4 expressed on cells; assay: flow cytometry receptor occupancy, CHO cells expressing PD-1:CTLA-4 (10:1); free CTLA-4 detected with labeled anti-CTLA-4 mAb
[13] = biological target: T2, human CTLA-4 expressed on cells; assay: flow cytometry receptor occupancy, CHO cells expressing PD-1:CTLA-4 (40:1); free CTLA-4 detected with labeled anti-CTLA-4 mAb
[14] = biological target: T2, human CTLA-4 expressed on cells; assay: flow cytometry receptor occupancy, CHO cells expressing PD-1:CTLA-4 (10:1); free CTLA-4 detected with labeled anti-CTLA-4 mAb; remark: listed apart in the source
[15] = biological target: T2, human CTLA-4 expressed on cells; assay: flow cytometry receptor occupancy, CHO cells expressing PD-1:CTLA-4 (40:1); free CTLA-4 detected with labeled anti-CTLA-4 mAb; remark: listed apart in the source

T1 sequence (Q15116 25-288 limits assumed): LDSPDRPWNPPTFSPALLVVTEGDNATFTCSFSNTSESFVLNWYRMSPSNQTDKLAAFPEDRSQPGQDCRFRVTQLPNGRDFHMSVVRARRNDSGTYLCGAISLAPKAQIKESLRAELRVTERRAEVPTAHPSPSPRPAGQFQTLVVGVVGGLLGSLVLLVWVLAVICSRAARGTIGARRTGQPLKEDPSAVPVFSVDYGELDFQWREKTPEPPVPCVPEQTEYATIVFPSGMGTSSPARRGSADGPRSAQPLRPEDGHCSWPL

B1: PD-1/CTLA-4 DuetMab (bispecific antibody, human IgG1, kappa, lambda)
heavy 1: EVQLVESGGGLVQPGGSLRLSCAASGFTFSDYGMHWVRQAPGKGLEWVAYISSGSYTIYSADSVKGRFTISRDNAKNSLYLQMNSLRAEDTAVYYCARRAPNSFYEYYFDYWGQGTTVTVSSASTKGPSVFPLAPSSKSTSGGTAALGCLVKDYFPEPVTVSWNSGALTSGVHTFPAVLQSSGLYSLSSVVTVPSSSLGTQTYICNVNHKPSNTKVDKRVEPKSCDKTHTCPPCPAPEFEGGPSVFLFPPKPKDTLMISRTPEVTCVVVDVSHEDPEVKFNWYVDGVEVHNAKTKPREEQYNSTYRVVSVLTVLHQDWLNGKEYKCKVSNKALPASIEKTISKAKGQPREPQVCTLPPSREEMTKNQVSLSCAVKGFYPSDIAVEWESNGQPENNYKTTPPVLDSDGSFFLVSKLTVDKSRWQQGNVFSCSVMHEALHNHYTQKSLSLSPGK
light 1: QIVLTQSPATLSLSPGERATLSCSASSKHTNLYWSRHMYWYQQKPGQAPRLLIYLTSNRATGIPARFSGSGSGTDFTLTISSLEPEDFAVYYCQQWSSNPFTFGQGTKLEIKRTVAAPSVFIFPPSDEQLKSGTASVVCLLNNFYPREAKVQWKVDNALQSGNSQESVTEQDSKDSTYSLSSTLTLSKADYEKHKVYACEVTHQGLSSPVTKSFNRGEC
heavy 2: not shown
light 2: DIQMTQSPSSLSASVGDRVTITCRASQSINSYLDWYQQKPGKAPKLLIYAASSLQSGVPSRFSGSGSGTDFTLTISSLQPEDFATYYCQQYYSTPFTFGPGTKVEIKGQPKAAPSVTLFPPCSEELQANKATLVCLISDFYPGAVTVAWKADSSPVKAGVETTTPSKQSNNKYAASSYLSLTPEQWKSHRSYSCQVTHEGSTVEKTVAPTEVS
notes: also called DuetMab PD-1/CTLA-4; PD-1/CTLA-4 DuetMab bispecific antibody; copies: 1 + 1 + 1 + 1
- fold decrease in PD-1 reporter gene assay, potency [1]: ~9 fold
- fold decrease in CTLA-4 reporter gene assay, potency [2]: ~16 fold
- fold lower concentration to saturate CTLA-4, against cells expressing only CTLA-4 [3]: ~500 fold
- EC50 (read off the curve) [4]: ~4000 pM
- EC50 (read off the curve) [5]: ~4000 pM
- fold lower concentration to saturate CTLA-4, against a combination of the monoclonal antibodies [6]: ~250 fold
- Kd (cynomolgus PD-1): 440 pM
- koff (cynomolgus PD-1): 0.000215 s⁻¹
- kon (cynomolgus PD-1): 490000 M⁻¹ s⁻¹
- Kd (mouse PD-1): 496000 pM
- koff (mouse PD-1): 0.0693 s⁻¹
- kon (mouse PD-1): 140000 M⁻¹ s⁻¹
- Kd [7]: 620 pM
- koff [7]: 0.000421 s⁻¹
- kon [7]: 684000 M⁻¹ s⁻¹
- Kd (cynomolgus CTLA-4): 550 pM
- koff (cynomolgus CTLA-4): 0.000634 s⁻¹
- kon (cynomolgus CTLA-4): 1.14e+06 M⁻¹ s⁻¹
- Kd [8]: 810 pM
- koff [8]: 0.000236 s⁻¹
- kon [8]: 295000 M⁻¹ s⁻¹
- IC50 [9]: 4600 pM
- IC50 [10]: 12200 pM
- IC50 [11]: 14400 pM
- IC50 [12]: 380 pM
- IC50 [13]: 10 pM
- IC50 [14]: 380 pM
- IC50 [15]: 10 pM
